Experimental findings from patent publication US20240082414A1 (Eli Lilly, published 2024) are described below.

For assay [1], the target named is TNFα expressed on human monocyte-derived dendritic cells (human, UniProt P01375 1-233). Put plainly: cell-based or functional assay.
Assay [2] has as its target T1, human TNFα (recombinant, soluble) (human, UniProt P01375 77-233).
T1 construct: the limits of the soluble protein used (Syngene for the ELISA); also called soluble human TNFα; human TNFα (Syngene)
The assay can be described thus: antigen-down ELISA, plate coated with human TNFα. On the procedure: (§1) Example 2a. […] Briefly, 384-well high binding plates (Greiner Bio-one #781061) were coated with 20 μL per well of 1 μg/mL of human TNFα (Syngene), 2 μg/mL of rhesus macaque TNFα (R&D Systems, Cat# 1070-RM), or 2 μg/mL of canine TNFα (R&D Systems, Cat# 1507-CT/CF) diluted in carbonate buffer pH 9.3 (0.015 M Na₂CO₃ and 0.035 M NaHCO₃) and stored at 4° C. overnight. […] The plates were incubated at 37° C. for 90 min, then washed three times in PBS/0.1% Tween. 20 μL of secondary antibody reagent goat-anti-human-kappa-AP (Southern Biotech, Cat# 2060-04) with 1:1500 dilution was added to the plate and incubated for 45 minutes at 37° C. Plates were washed 3 times as above, and 20 μL of alkaline phosphatase substrate solution diluted to 1:35 in molecular grade water was added to every well. Once the color developed (approximately 15-30 min), plates were read at 560 nm OD on a Molecular Device Spectramax plate reader and data was acquired using Softmax Pro 4.7 software. Data analysis was performed in GraphPad Prism.
(ELISA stands for enzyme-linked immunosorbent assay.)

In assay [3] the target is T2, canine TNFα (canine, UniProt P51742 77-233).
T2 construct: Bought protein; also called Canine TNFα (R&D Systems, Cat# 1507-CT/CF)
The assay can be described thus: antigen-down ELISA, plate coated with canine TNFα. On the procedure:
as §1

Assay [4] has as its target T3, rhesus macaque TNFα (rhesus macaque, UniProt P48094 77-233).
T3 construct: Bought protein; also called rhesus macaque monkey TNFα (R&D Systems, Cat# 1070-RM)
Put plainly: antigen-down ELISA, plate coated with rhesus macaque TNFα. On the procedure: as §1

Assay [5] addresses membrane human TNFα (non-cleavable TNFα construct stably transfected into CHO cells) (human, UniProt P01375 1-233). The assay can be described thus: cell-based or functional assay.
The target of assay [6] is T1, human TNFα (recombinant, soluble). The assay can be described thus: cell-based or functional assay.
For assay [7] the target is unchanged. The assay can be described thus: cell-based or functional assay. This is another data set of the same source.
For assay [8] the target is unchanged. Put plainly: antigen-down ELISA, plate coated with human TNFα. On the procedure: as §1
The source holds these as a separate data set.

Where two headings read alike, the source gives them in different places.

T2 sequence (P51742 77-233 limits assumed): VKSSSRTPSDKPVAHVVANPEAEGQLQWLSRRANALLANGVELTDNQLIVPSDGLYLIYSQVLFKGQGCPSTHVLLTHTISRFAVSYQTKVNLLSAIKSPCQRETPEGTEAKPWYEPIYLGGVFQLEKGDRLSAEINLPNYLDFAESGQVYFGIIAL
TNFα expressed on human monocyte-derived dendritic cells, sequence (P01375 whole entry): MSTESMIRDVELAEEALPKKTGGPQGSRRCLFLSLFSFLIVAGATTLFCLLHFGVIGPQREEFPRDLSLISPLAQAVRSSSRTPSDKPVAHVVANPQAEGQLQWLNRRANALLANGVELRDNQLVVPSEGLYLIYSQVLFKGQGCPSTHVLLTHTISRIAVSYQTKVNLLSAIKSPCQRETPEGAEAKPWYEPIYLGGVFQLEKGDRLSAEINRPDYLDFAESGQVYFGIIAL
T3 sequence (P48094 77-233 limits assumed): as the sequence (P51742 77-233 limits assumed) above, with K2R, E21Q, S30N, I49V, D53E, T72N, F83I, T109A, N140D counted along it
T1 sequence (P01375 77-233 limits assumed): as the sequence (P51742 77-233 limits assumed) above, with K2R, E21Q, S30N, T44R, I49V, D53E, F83I, T109A, L138R, N140D counted along it

B1: anti-human TNFα antibody Ab3 (antibody, human IgG1, kappa, V domains shown)
VH: QVQLVQSGAEVKKPGASVKVSCKASGYTFTGYYMHWVRQAPGQGLEWMGWINPYTGGTKYAQKFQGRVTMTRDTSISTAYMELSRLRSDDTAVYYCARDLYGSSNYGMDVWGQGTTVTVSS
VL: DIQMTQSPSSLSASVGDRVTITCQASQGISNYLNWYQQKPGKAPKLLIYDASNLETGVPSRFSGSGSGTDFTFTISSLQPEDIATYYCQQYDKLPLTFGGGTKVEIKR
notes: Human IgG1; expressed in CHO cells
One may read the EC50 as the concentration giving half of the maximal effect. Regarding B1, the “Immature Dendritic Cell Internalization Index” value in assay [1] stood at 20. The “Mature Dendritic Cell Internalization Index” value in assay [1] came out at 35.2. The EC50 turned out to be 0.216 µg/mL in assay [2], 0.24 µg/mL in assay [3] and 0.141 µg/mL in assay [4]. The “Inhibition of membrane human TNFα-induced apoptosis IC50 (L929 cells)” value in assay [5] was 0.15 µg/mL. Also, the “Inhibition of soluble human TNFα induced apoptosis IC50 (L929 cells)” value in assay [6] worked out at 0.19 µg/mL.

B2: anti-human TNFα antibody Ab1 (antibody, human IgG1, kappa, V domains shown)
VH: QVQLVQSGAEVKKPGASVKVSCKASGYTFTGYYIHWVRQAPGQGLEWMGWINPYTGGTNYAQKFQGRVTMTRDTSISTAYMELSRLRSDDTAVYYCARDLYGSSNYGGDVWGQGTTVTVSS
VL: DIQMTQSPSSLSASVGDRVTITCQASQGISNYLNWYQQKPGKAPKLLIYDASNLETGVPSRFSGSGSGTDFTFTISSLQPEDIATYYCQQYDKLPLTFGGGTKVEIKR
notes: Human IgG1 with engineered cysteines at heavy chain positions 124 and 378 (EU numbering); expressed in CHO cells; also called anti-human TNFα Ab1; unconjugated anti-human TNFα Ab1
For the molecule B2, in assay [1], the “Immature Dendritic Cell Internalization Index” value was 19.4. The “Mature Dendritic Cell Internalization Index” value in assay [1] was 26.7. Besides, the EC50 in assay [2] stood at 0.223 µg/mL; in assay [8], 0.28 µg/mL; in assay [3] it was 0.22 µg/mL; in assay [4], 0.156 µg/mL. Also, the entries for the “Inhibition of soluble human TNFα induced apoptosis IC50 (L929 cells)” value in assay [7] and in assay [6] were 0.089 µg/mL and 0.16 µg/mL, respectively.

B3: anti-human TNFα antibody Ab2 (antibody, human IgG1, kappa, V domains shown)
VH: QVQLVQSGAEVKKPGASVKVSCKASGYTFTGYYIHWVRQAPGQGLEWMGWINPYTGGTNYAQKFQGRVTMTRDTSISTAYMELSRLRSDDTAVYYCARDLYGSSNYGMDVWGQGTTVTVSS
VL: not shown
notes: as for B1
For the molecule B3, the “Immature Dendritic Cell Internalization Index” value in assay [1] is 21.9. For the same molecule, in assay [1], the “Mature Dendritic Cell Internalization Index” value was determined as 38.3. The results for the EC50 in assay [2], in assay [3] and in assay [4] were 0.222 µg/mL, 0.24 µg/mL and 0.162 µg/mL, respectively. The “Inhibition of membrane human TNFα-induced apoptosis IC50 (L929 cells)” value in assay [5] was 0.13 µg/mL. Moreover, the “Inhibition of soluble human TNFα induced apoptosis IC50 (L929 cells)” value in assay [6] came out at 0.13 µg/mL.

B4: anti-human TNFα antibody Ab5 (antibody, human IgG1, kappa, V domains shown)
VH: QVQLVQSGAEVKKPGASVKVSCKASGYTFTGYYMHWVRQAPGQGLEWMGWINPYTGGTKYAQKFQGRVTMTRDTSISTAYMELSRLRSDDTAVYYCARDLYGSSNYGMDVWGQGTTVTVSS
VL: DIQMTQSPSSLSASVGDRVTITCQASQGIRNYLNWYQQKPGKAPKLLIYDASNLETGVPSRFSGSGSGTDFTFTISSLQPEDIATYYCQQYDKLPLTFGGGTKVEIKR
notes: as for B1
For the molecule B4, the “Immature Dendritic Cell Internalization Index” value in assay [1] was 54.6. In assay [1], the “Mature Dendritic Cell Internalization Index” value came to 52.7. For the same molecule, the EC50 in assay [2] amounted to 0.22 µg/mL; in assay [3], 0.176 µg/mL; in assay [4] it was 0.161 µg/mL. In addition, the “Inhibition of membrane human TNFα-induced apoptosis IC50 (L929 cells)” value in assay [5] came to 0.2 µg/mL. In assay [6], the “Inhibition of soluble human TNFα induced apoptosis IC50 (L929 cells)” value is 0.22 µg/mL.

B5: anti-human TNFα antibody Ab4 (antibody, human IgG1, kappa, V domains shown)
VH: QVQLVQSGAEVKKPGASVKVSCKASGYTFTGYYMHWVRQAPGQGLEWMGWINPYTGGTKYAQKFQGRVTMTRDTSISTAYMELSRLRSDDTAVYYCARDLYGSSNYGMDVWGQGTTVTVSS
VL: not shown
notes: as for B1
With B5, the “Immature Dendritic Cell Internalization Index” value in assay [1] came out at 33.6. The “Mature Dendritic Cell Internalization Index” value in assay [1] turned out to be 43.1. Also, the EC50 in assay [2] stood at 0.213 µg/mL; in assay [3], 0.231 µg/mL; in assay [4] it was 0.144 µg/mL. The “Inhibition of membrane human TNFα-induced apoptosis IC50 (L929 cells)” value in assay [5] amounted to 0.13 µg/mL. Besides, in assay [6], the “Inhibition of soluble human TNFα induced apoptosis IC50 (L929 cells)” value came to 0.19 µg/mL.

B6: anti-human TNFα antibody Ab6 (antibody, human IgG1, kappa, V domains shown)
VH: QVQLVQSGAEVKKPGASVKVSCKASGYTFTGYYIHWVRQAPGQGLEWMGWINPYTGGTNYAQKFQGRVTMTRDTSISTAYMELSRLRSDDTAVYYCARDIYGSSNYGGDVWGQGTTVTVSS
VL: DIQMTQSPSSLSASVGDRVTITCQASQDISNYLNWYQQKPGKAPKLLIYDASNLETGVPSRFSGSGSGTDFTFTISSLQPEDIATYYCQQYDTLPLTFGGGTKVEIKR
notes: Human IgG1
Consider B6, for which the results for the EC50 in assay [2], in assay [3] and in assay [4] were 0.131 µg/mL, 0.162 µg/mL and 0.115 µg/mL, respectively.
